Measured values from article PMC10681739, “High-throughput data and modeling reveal insights into the mechanisms of cooperative DNA-binding by transcription factor proteins”.

T1: ETS1 (Homo sapiens, UniProt P14921)
T1 sequence: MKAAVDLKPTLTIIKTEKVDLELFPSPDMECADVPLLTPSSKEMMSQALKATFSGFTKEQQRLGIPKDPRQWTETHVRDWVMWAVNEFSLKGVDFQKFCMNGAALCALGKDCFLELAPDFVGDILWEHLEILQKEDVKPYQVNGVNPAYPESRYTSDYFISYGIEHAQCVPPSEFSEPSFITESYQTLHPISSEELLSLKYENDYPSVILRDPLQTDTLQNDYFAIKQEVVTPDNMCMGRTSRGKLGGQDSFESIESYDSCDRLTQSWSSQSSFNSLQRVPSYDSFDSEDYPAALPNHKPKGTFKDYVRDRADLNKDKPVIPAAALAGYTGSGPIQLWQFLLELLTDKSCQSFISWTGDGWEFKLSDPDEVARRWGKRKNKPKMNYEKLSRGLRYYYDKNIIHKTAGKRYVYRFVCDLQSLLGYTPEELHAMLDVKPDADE

B1: Table S3 B row 3344 (dsDNA)
DNA 1: CCGAAGCCTGCGGTTTCATGTGGGAGCAAGCGGCCT
DNA 2: AGGCCGCTTGCTCCCACATGAAACCGCAGGCTTCGG
B2: Table S2 B row 1731 (dsDNA)
DNA 1: GACTGGTTTCCTGGTTTTGATGTAGTTTAGAGAAAA
DNA 2: TTTTCTCTAAACTACATCAAAACCAGGAAACCAGTC
B3: Table S3 B row 2218 (dsDNA)
DNA 1: TCCTTGCGGTTTGCTTTCGCCGTCTCCGAACCGAGG
DNA 2: CCTCGGTTCGGAGACGGCGAAAGCAAACCGCAAGGA
B4: Table S3 B row 272 (dsDNA)
DNA 1: ACGAGGTTGCGGTTTCTCCACCTCCTCAACAACCTG
DNA 2: CAGGTTGTTGAGGAGGTGGAGAAACCGCAACCTCGT
B5: Table S3 B row 2036 (dsDNA)
DNA 1: GATTGCGGTTGGGACTTTCCCTAAGTCATTTGCTGT
DNA 2: ACAGCAAATGACTTAGGGAAAGTCCCAACCGCAATC
B6: Table S2 B row 1163 (dsDNA)
DNA 1: ATCACTTGTTTCCGCCAGCAAATCACAGGTCCCCAG
DNA 2: CTGGGGACCTGTGATTTGCTGGCGGAAACAAGTGAT
B7: Table S2 B row 3902 (dsDNA)
DNA 1: TGGGGCCCGGAAGCGCTGGCGCCTTACGGCCAGAAG
DNA 2: CTTCTGGCCGTAAGGCGCCAGCGCTTCCGGGCCCCA
B8: Table S3 B row 584 (dsDNA)
DNA 1: GTCCTCTTTGTGGTTTCCATTTGCTTTGTGAAAGAG
DNA 2: CTCTTTCACAAAGCAAATGGAAACCACAAAGAGGAC
B9: Table S2 B row 306 (dsDNA)
DNA 1: GAGAAACAGGAAGAGGGGTGGTGCTTACGGAACACG
DNA 2: CGTGTTCCGTAAGCACCACCCCTCTTCCTGTTTCTC
B10: Table S3 B row 1477 (dsDNA)
DNA 1: TTCTTTGGTCAACCGCAAGCCTCTGCCGCGTCTCGC
DNA 2: GCGAGACGCGGCAGAGGCTTGCGGTTGACCAAAGAA
B11: Table S3 B row 852 (dsDNA)
DNA 1: CGGCAGCTTGCGGTTAGCCGTTCTTTCAGCCCAGTT
DNA 2: AACTGGGCTGAAAGAACGGCTAACCGCAAGCTGCCG
B12: Table S3 B row 3657 (dsDNA)
DNA 1: CCACCCAAAACCACAACCATTTGCCCCATCACTTTG
DNA 2: CAAAGTGATGGGGCAAATGGTTGTGGTTTTGGGTGG
B13: Table S3 B row 474 (dsDNA)
DNA 1: TCGTATTTGCGGTCAGCCTCTTACGTAATGTGCTTG
DNA 2: CAAGCACATTACGTAAGAGGCTGACCGCAAATACGA
B14: Table S2 B row 3602 (dsDNA)
DNA 1: TGTCGGGCGGATGTGTACCGGCGTTAATATAGTAAG
DNA 2: CTTACTATATTAACGCCGGTACACATCCGCCCGACA
B15: Table S2 B row 1543 (dsDNA)
DNA 1: AAACCAGAGAGGAAGTGGCACCTCATGGCCAGACTG
DNA 2: CAGTCTGGCCATGAGGTGCCACTTCCTCTCTGGTTT
B16: Table S3 B row 3808 (dsDNA)
DNA 1: GCCCTTCTTGCGGTTTTCATGGCAGGGTGTTAACAT
DNA 2: ATGTTAACACCCTGCCATGAAAACCGCAAGAAGGGC
B17: Table S2 B row 799 (dsDNA)
DNA 1: ATGAACCACTTCCTGTGTGTTCCCAGAGAGGTCAGG
DNA 2: CCTGACCTCTCTGGGAACACACAGGAAGTGGTTCAT
B18: Table S2 B row 3281 (dsDNA)
DNA 1: GACCTGACAACATCCTGGCGCAGTGAGTTGGCCCTG
DNA 2: CAGGGCCAACTCACTGCGCCAGGATGTTGTCAGGTC
B19: Table S3 B row 3820 (dsDNA)
DNA 1: TTTTGCGGTTTTTGATCTGGAAGCCACACAGCCTTA
DNA 2: TAAGGCTGTGTGGCTTCCAGATCAAAAACCGCAAAA
B20: Table S3 B row 2222 (dsDNA)
DNA 1: CAGAAACCGCAGAACTGAGCTGACGACCCGGGAGTG
DNA 2: CACTCCCGGGTCGTCAGCTCAGTTCTGCGGTTTCTG
B21: Table S2 B row 4083 (dsDNA)
DNA 1: GCCCCAGCGTTTCCTCTTACCCAAAATGCCCCGCCC
DNA 2: GGGCGGGGCATTTTGGGTAAGAGGAAACGCTGGGGC
B22: Table S3 B row 3235 (dsDNA)
DNA 1: AAGTCAAAACCGCAAACGCTCAGTAAAAAAGACTCT
DNA 2: AGAGTCTTTTTTACTGAGCGTTTGCGGTTTTGACTT
B23: Table S3 B row 1191 (dsDNA)
DNA 1: CTCTTGCGGTCAGGTCACGCCGCCTGAAGCCGCCCC
DNA 2: GGGGCGGCTTCAGGCGGCGTGACCTGACCGCAAGAG
B24: Table S2 B row 3084 (dsDNA)
DNA 1: TTTGCACACATCCTGGCCTCCGCCTGAGCACCTCCT
DNA 2: AGGAGGTGCTCAGGCGGAGGCCAGGATGTGTGCAAA
B25: Table S2 B row 479 (dsDNA)
DNA 1: CACTTCCCCCAGCCTCTCTTTTTAATACGACAATAG
DNA 2: CTATTGTCGTATTAAAAAGAGAGGCTGGGGGAAGTG
B26: Table S3 B row 3447 (dsDNA)
DNA 1: TGATTGCGGTTTCGGTCGCTCTCCCGTGTTTGCCGG
DNA 2: CCGGCAAACACGGGAGAGCGACCGAAACCGCAATCA
B27: Table S2 B row 145 (dsDNA)
DNA 1: CCACCATCTTTCCGGCTCCCTCGCGACCTCCACGAC
DNA 2: GTCGTGGAGGTCGCGAGGGAGCCGGAAAGATGGTGG
B28: Table S3 B row 1801 (dsDNA)
DNA 1: ACTCTAACCGCAGTGACGTGGGACCTCCTCGGCAGG
DNA 2: CCTGCCGAGGAGGTCCCACGTCACTGCGGTTAGAGT
B29: Table S2 B row 1979 (dsDNA)
DNA 1: CTGAAACAGGAAGCTGAGGGTGCCGTTGGGGGAGGA
DNA 2: TCCTCCCCCAACGGCACCCTCAGCTTCCTGTTTCAG
B30: Table S3 B row 1798 (dsDNA)
DNA 1: CTCTCTTGCGGTTTGCAGCCAGATCACCTCCCATAC
DNA 2: GTATGGGAGGTGATCTGGCTGCAAACCGCAAGAGAG
B31: Table S2 B row 544 (dsDNA)
DNA 1: GCTCCCGGATGTTCTGGGGATCAGCGCCCGCCTGGC
DNA 2: GCCAGGCGGGCGCTGATCCCCAGAACATCCGGGAGC
B32: Table S2 B row 1606 (dsDNA)
DNA 1: CCGCTTCCTTAGAGGTTAAGTGGTGGAGGTTCAGTT
DNA 2: AACTGAACCTCCACCACTTAACCTCTAAGGAAGCGG
B33: Table S3 B row 2580 (dsDNA)
DNA 1: GTCGCTGCGGTTTTGGGGTTGGCATGCTGTCCTCTG
DNA 2: CAGAGGACAGCATGCCAACCCCAAAACCGCAGCGAC
B34: Table S2 B row 1042 (dsDNA)
DNA 1: GGTCCGGATGTATAAAGCGCGGCCCCCTGGGGGGAG
DNA 2: CTCCCCCCAGGGGGCCGCGCTTTATACATCCGGACC
B35: Table S2 B row 540 (dsDNA)
DNA 1: AACAAACCGGATGGGGTTGCCACCTGCAATCTTGTC
DNA 2: GACAAGATTGCAGGTGGCAACCCCATCCGGTTTGTT
B36: Table S3 B row 943 (dsDNA)
DNA 1: TGTTTGCGGTTTAGACCCCAAAGATTCATGTTGGTA
DNA 2: TACCAACATGAATCTTTGGGGTCTAAACCGCAAACA
B37: Table S2 B row 573 (dsDNA)
DNA 1: GCCACCGTATTTCCGCGTTTTTCGAGGTAGGCGGGA
DNA 2: TCCCGCCTACCTCGAAAAACGCGGAAATACGGTGGC
B38: Table S2 B row 2920 (dsDNA)
DNA 1: GGCGCTAGGCTTCCGGATCGCGCTGGGCGGAGTTCA
DNA 2: TGAACTCCGCCCAGCGCGATCCGGAAGCCTAGCGCC
B39: Table S2 B row 3477 (dsDNA)
DNA 1: CTACCGGGAGTGCAGGTCGCGCTTCCGGCGGCGTCC
DNA 2: GGACGCCGCCGGAAGCGCGACCTGCACTCCCGGTAG
B40: Table S2 B row 159 (dsDNA)
DNA 1: GTAAAAGAGGAAGTAACACCTCCTTGACGTTGAGAC
DNA 2: GTCTCAACGTCAAGGAGGTGTTACTTCCTCTTTTAC
B41: Table S3 B row 3968 (dsDNA)
DNA 1: CCGAGTTGCGGTTTCTCCGTTAGTGCTTACGGGTTG
DNA 2: CAACCCGTAAGCACTAACGGAGAAACCGCAACTCGG

Assays:
RUNX1 = RUNX1 (Homo sapiens, UniProt Q01196); experiment: gcPBM; 2 nM RUNX1; settings: tags: N-terminal GST (pDEST15), kept (PMC6008103); label: surface-attached array probe
Sequence of RUNX1 (Q01196 whole entry): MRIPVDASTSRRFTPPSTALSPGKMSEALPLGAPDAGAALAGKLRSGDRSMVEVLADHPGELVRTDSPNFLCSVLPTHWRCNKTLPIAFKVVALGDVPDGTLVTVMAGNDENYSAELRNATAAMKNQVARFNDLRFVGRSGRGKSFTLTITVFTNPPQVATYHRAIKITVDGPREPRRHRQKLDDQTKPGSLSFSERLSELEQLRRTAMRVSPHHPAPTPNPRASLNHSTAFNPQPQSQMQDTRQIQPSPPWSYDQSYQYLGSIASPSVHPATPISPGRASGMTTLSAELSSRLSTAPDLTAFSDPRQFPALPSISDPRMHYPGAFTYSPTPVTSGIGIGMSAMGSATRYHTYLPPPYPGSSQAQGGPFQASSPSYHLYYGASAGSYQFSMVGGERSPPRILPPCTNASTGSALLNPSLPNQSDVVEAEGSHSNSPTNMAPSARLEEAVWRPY

ETS1 = target: T1, ETS1; experiment: gcPBM; 1 nM ETS1; settings: tags: N-terminal GST (pDEST15), kept (PMC6008103); label: surface-attached array probe

Binder | binding signal (RUNX1) | binding signal (ETS1)
B1 | 37500 PBM fluorescence, median of replicate spots | –
B2 | – | 3820 PBM fluorescence, median of replicate spots
B3 | 30700 PBM fluorescence, median of replicate spots | –
B4 | 32700 PBM fluorescence, median of replicate spots | –
B5 | 53200 PBM fluorescence, median of replicate spots | –
B6 | – | 3770 PBM fluorescence, median of replicate spots
B7 | – | 3570 PBM fluorescence, median of replicate spots
B8 | 34700 PBM fluorescence, median of replicate spots | –
B9 | – | 2960 PBM fluorescence, median of replicate spots
B10 | 37300 PBM fluorescence, median of replicate spots | –
B11 | 48900 PBM fluorescence, median of replicate spots | –
B12 | 31700 PBM fluorescence, median of replicate spots | –
B13 | 29200 PBM fluorescence, median of replicate spots | –
B14 | – | 2800 PBM fluorescence, median of replicate spots
B15 | – | 3160 PBM fluorescence, median of replicate spots
B16 | 60800 PBM fluorescence, median of replicate spots | –
B17 | – | 25100 PBM fluorescence, median of replicate spots
B18 | – | 3720 PBM fluorescence, median of replicate spots
B19 | 57800 PBM fluorescence, median of replicate spots | –
B20 | 42300 PBM fluorescence, median of replicate spots | –
B21 | – | 3440 PBM fluorescence, median of replicate spots

Binder | binding signal (RUNX1) | binding signal (ETS1)
B22 | 42400 PBM fluorescence, median of replicate spots | –
B23 | 30900 PBM fluorescence, median of replicate spots | –
B24 | – | 3370 PBM fluorescence, median of replicate spots
B25 | – | 2920 PBM fluorescence, median of replicate spots
B26 | 50800 PBM fluorescence, median of replicate spots | –
B27 | – | 3090 PBM fluorescence, median of replicate spots
B28 | 46700 PBM fluorescence, median of replicate spots | –
B29 | – | 3960 PBM fluorescence, median of replicate spots
B30 | 37400 PBM fluorescence, median of replicate spots | –
B31 | – | 3300 PBM fluorescence, median of replicate spots
B32 | – | 3060 PBM fluorescence, median of replicate spots
B33 | 58800 PBM fluorescence, median of replicate spots | –
B34 | – | 2790 PBM fluorescence, median of replicate spots
B35 | – | 3220 PBM fluorescence, median of replicate spots
B36 | 38700 PBM fluorescence, median of replicate spots | –
B37 | – | 3870 PBM fluorescence, median of replicate spots
B38 | – | 2860 PBM fluorescence, median of replicate spots
B39 | – | 3610 PBM fluorescence, median of replicate spots
B40 | – | 2720 PBM fluorescence, median of replicate spots
B41 | 54300 PBM fluorescence, median of replicate spots | –
